Test system: MS2 coat protein
Assay: apparent KD of MS2 coat protein; designed switch direction (-1 OFF switch, 1 ON switch): 1; higher = weaker reporter binding
Method in brief: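 The apparent KD reported per design is the median over clusters of curve fits to normalised cluster fluorescence. The RNA switches were transcribed on Illumina chips by stalled E. coli RNA polymerase. SNAP-549-labelled MS2 coat protein was titrated from 0.7 or 1.5 nM, doubling up to 3 µM, in Tris-HCl pH 7.5 buffer containing KCl, MgCl2, BSA, DTT, tRNA and Tween-20, with no input, 200 uM small-molecule ligand, or an oligonucleotide input.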

[1] = Eterna round: R95, input ligand: FMN 200 uM
[2] = Eterna round: R95, input ligand: microRNA oligo, concentration not stated
[3] = Eterna round: R95, input ligand: none
[4] = input ligand: microRNA oligo, concentration not stated

Sequence	apparent KD of MS2 coat protein [1] [nM]	apparent KD of MS2 coat protein [2] [nM]	apparent KD of MS2 coat protein [3] [nM]	apparent KD of MS2 coat protein (input ligand: FMN 200 uM) [nM]	apparent KD of MS2 coat protein [4] [nM]	apparent KD of MS2 coat protein (input ligand: none) [nM]
UUUAAACAUGAGGAUCACCCAUGUUUUUUCAUGGGAGGAUAUCUGAGUUAAUUAUAUUAAGGAGAAGGCCUAUUUU [× ×•×ª×• ×ž×“×™× ×” × ×—×ª-01] (puzzle: Same State 1)	102	38.6	75.9	–	–	–
AGUAUUUAUGCAGGAUAUGAUUAACAUGAGGAUCACCCAUGUGGUGUUGUGAGUAAGGAGAGUGAUCAGAAGGGCAUUUUUUUU [JMF's solution 74] (Eterna round: R96, puzzle: Same State NG 2)	–	–	–	512	324	380
AGAUCAUGACGAGGAUAUCCGACAUGAGGAUCACCCAUGUAUGUCGGAGGACGAAUACGUCCAAAGGAGAAGGCGUCGUGGUCA [Mat - Same State NG 2 - JL mod - D38] (Eterna round: R96, puzzle: Same State NG 2)	–	–	–	25.2	62.9	85.4
UAAUUAAAGCAAGGAUAUCACGUCGUUUAGACGUGAGAAGGUGCUCCUUACAUGAGGAUCACCCAUGUAUAACAUGAAUAAUUA [SSNG1/10-B3] (Eterna round: R96, puzzle: Same State NG 1)	–	–	–	170	517	656
GUUCGUUUGAUAGGAUAUCGCUAUACAUGAGGAUCACCCAUGUUUACCACGCUGGUUUUUCGUACCGAGAAGGAUUCUGAUGAU [JL JR sub007 mod 2] (Eterna round: R96, puzzle: Same State NG 2)	–	–	–	–	30.5	–
AGCGCGGUCUCGCAGGAUAUCCACAAUCCUACAUGAGGAUCACCCAUGUCGCUGCAGGAUAUUAGGGAGAAGGGUGAUGCCGCGC [Riorge] (puzzle: Same State 2)	–	25.2	–	–	–	–
AUCCUACAUGAGGAUCACCCAUGUGAAGCCUCAAUAGGAUAUGCGUGUGCCUUGGCGCAUGCAGAAGGAUUGAAGC [JL Aveso mod 3] (puzzle: Same State 1)	91	311	967	–	–	–
UGGUACAUGGGAGGAUAUGGGCAAGGGACAUGAGGAUCACCCAUGUAUUAAAAGCCGAAAGGCAUCUAGAAGGCCCAUGUACCU [JL SSNG1 3.87] (Eterna round: R96, puzzle: Same State NG 2)	–	–	–	14	42.7	50.2
GUGGUCAGACAUGAGGAUCACCCAUGUGGAAUAAAUAAGGAAUAGGAUAUGGAAUAUAGGAUAUACCAGAAGGAUUGGUUGGUG (Eterna round: R96, puzzle: Same State NG 3)	–	–	–	96.9	80.4	97
GUUACAUGAGGAUCACCCAUGUAUGUGUGGGAGUAAGUGUCUUAGGAUAUCUAUCAAUUAAUUUAAGAGAAGGAAGAUUGUUGU [JMF's solution 89] (Eterna round: R96, puzzle: Same State NG 3)	–	–	–	116	94	110
GCGAAACAUGAGGAUCACCCAUGUAUGGCGGGCACAGGAUAUCGUGGUUCGCUCAUACUACGAGAAGGGUGAAAAG [Orqu] (puzzle: Same State 1)	24.1	18.4	16.9	–	–	–
UGGAUCUAGGCUUGCCUGGGUCCAUGUUGACAUGAGGAUCACCCAUGUGUAUUUUUUUUGCUUUUUGUUUGUCAACU [JL A Humble Attempt mod 11] (puzzle: Sensor for hsa-mir-208a)	25.2	12.7	26.5	–	–	–
AUUAAACAUGAGGAUCACCCAUGUCAACAAAGUCGAGGAUAUGGGCAAAUAAAAUAAGAACCAGAAGGCGAUUAAU [salish99_ss1_r3_078] (puzzle: Same State 1)	18.7	109	95.7	–	–	–
GCUAGAAUUAAUGCCUACAUGAGGAUCACCCAUGUAUGUAGGCAGGAUAUCGUUUGCUUUGCAAACGAGAAGGGCCUUACUAGC [JL SSNG3 1.10] (Eterna round: R96, puzzle: Same State NG 3)	–	–	–	18.9	50.8	77.3
GUGGAGGGUUGAGGAUAUUGAAUACAUAUGUUUAACAUGAGGAUCACCCAUGUGGGUUGCGGUAUCGAGAAGGUAAAUUACUGG [salish99_SSNG2_r04_036] (Eterna round: R96, puzzle: Same State NG 2)	–	–	–	80.9	79	86.3
UAUGAACAUGAGGAUCACCCAUGUGGUACGAUCACAGGAUAUCACCUCGGACGUGCGAUGUGAGAAGGGUGAUGGU [Same State 1 - Mod of Vinnie Anrelari v.1] (puzzle: Same State 1)	–	63.1	–	–	–	–

Sequence	apparent KD of MS2 coat protein [1] [nM]	apparent KD of MS2 coat protein [2] [nM]	apparent KD of MS2 coat protein [3] [nM]	apparent KD of MS2 coat protein (input ligand: FMN 200 uM) [nM]	apparent KD of MS2 coat protein [4] [nM]	apparent KD of MS2 coat protein (input ligand: none) [nM]
AAACGGCCCAACGAAGGGCCACAUGAGGAUCACCCAUGUACAUAGGAUAUCACGCCAACAAAGCGUGAGAAGGGUGAUUAAAAC [Lezaer] (Eterna round: R96, puzzle: Same State NG 3)	–	–	–	270	11.6	163
UGGAUCUAGGCUUGCCUGGGUCCAUGUUGACAUGAGGAUCACCCAUGUGUAUUUUUUAAGCUUUUUGUUUGUCAACA [JL A Humble Attempt mod 6] (puzzle: Sensor for hsa-mir-208a)	42.4	13.2	42.5	–	–	–
AUUAAUUAUGCAGGAUAUGAUUAACAUGAGGAUCACCCAUGUGGUGUUGUGAGUAAGGAGAGUGAUCAGAAGGGCAUUUUUUUU [JMF's solution 66] (Eterna round: R96, puzzle: Same State NG 2)	–	–	–	652	524	449
GGAGCCGGUACUGAGGAUAUUCAUAUUAAAACAUGAGGAUCACCCAUGUAGGCCAGAAGGCCUUGGGAGAAGGCAGGCCAGCUCG [Atgexeedri - 4] (Eterna round: R96, puzzle: Same State 2)	–	–	–	24.7	177	268
UUUUUUAAGACGAGACAAGCUUUUUGAUCACAUGAGGAUCACCCAUGUCUCGUCUUAUUUUUUUUUUUUUUUUUUUU [BA Sensor hsa-mir-208a - 2 - 3] (puzzle: Sensor for hsa-mir-208a)	21.4	5.76	16.9	–	–	–
AGUCCAGCCUGAGCUGGACAGAAGCAUGUACAUGAGGAUCACCCAUGUCAUGUACAAGCUUUUUGCUCGUCUUAAAA [Zipper 46 - 3] (puzzle: Sensor for hsa-mir-208a)	422	15.9	586	–	–	–
UUGUUUGGUAAAAUACAUGAGGAUCACCCAUGUUAUGGUGCAGAGGAUAUGCAUGUUUGAUUGAAGCAGAAGGCUGUAAGUUGU [JR_SSNG3_Sub036] (Eterna round: R96, puzzle: Same State NG 3)	–	–	–	35.7	35.5	43.7
ACAUGAAAUUUAGGAUAUUUUGUACCUACAUGUGACAUGAGGAUCACCCAUGUGGUAAGUAUGAGAAAGAAGGAAAAGAUAUGU [Equivalence 9 - Jieux - Same State NG 2] (Eterna round: R96, puzzle: Same State NG 2)	–	–	–	71.8	61.6	70.9
AUAAGGCAAGCUUUUUUCUCGUAGUGUAAACAUGAGGAUCACCCAUGUGCCCACCCUGGAUCUUUGGAUCGCAAAAC [Ceatgeor] (puzzle: Sensor for hsa-mir-208a)	23.9	18.6	23.7	–	–	–
GCGAGCGUACUUGCAACAUGAGGAUCACCCAUGUUAACUGGACAGGAUAUGGUACCGUUUCGGUACCAGAAGGGUUCACUCAUG [JL SSNG3 3.59] (Eterna round: R96, puzzle: Same State NG 3)	–	–	–	–	64.2	–
UCGUUCAUCGUAGGAUAUCUAGGAUAUGAACGAGGAUCACCCGAGCAGCAUCAGCGCAUCAGAGGAGAGAAGGACGCUGAUGCG [pwkr ssNG2 2F5 2FMN.20] (Eterna round: R96, puzzle: Same State NG 2)	–	–	–	30	8.83	84.8
ACAUGAGACUUAGGAUAUCUUGUACCUACAUGUGACAUGAGGAUCACCCAUGUGGUAAGUAUGAGAGAGAAGGAAGAGAUAUGU [Equivalence 37 - Jieux - Same State NG 2] (Eterna round: R96, puzzle: Same State NG 2)	–	–	–	19.7	14.4	23.2
AGAAAACAUGAGGAUCACCCAUGUAUAGUGAAUACAGGAUAUCACCGGCGGAAUAGCCAGUGAGAAGGGUGAUCGC [Aarusxe] (puzzle: Same State 1)	71.5	11.5	41	–	–	–
AGAGUGUAUCCACAGGAUAUGCGAGCCGACACAUGAGGAUCACCCAUGUAGUCCUAAAGGGCUGAGCAGAAGGGUGGUAAGGCUC [Xelear] (puzzle: Same State 2)	31.7	169	285	–	–	–
UAUUUAAUCGUAGGAUAUAGAAUGAAAUUUGUACUAGAAGGACGUUACAUGAGGAUCACCCAUGUGGUAAGUGGGACAUAGAUU [JR_SSNG1_Sub035] (Eterna round: R96, puzzle: Same State NG 1)	–	–	–	235	105	121

Reference: the supplement of paper PMC9170038
